Reference: PMC12804927

Biological target: T1, GFP-UTP15 IDR (UniProt Q8C7V3 314-528)
T1 sequence: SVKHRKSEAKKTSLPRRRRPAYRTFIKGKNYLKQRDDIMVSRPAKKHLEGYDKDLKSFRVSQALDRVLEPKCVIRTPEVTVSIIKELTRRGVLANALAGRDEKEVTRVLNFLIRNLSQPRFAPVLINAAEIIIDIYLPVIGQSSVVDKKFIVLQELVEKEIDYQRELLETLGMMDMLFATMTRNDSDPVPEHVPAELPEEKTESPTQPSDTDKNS
Assay: EMSA

UCGUGUCUCGCUUGACCAUGUUCCCAGAGUCGGUGGAUGU (ssRNA) [5'ETS RNA probe]: binds.
